Results reported in article PMC6332122, “Identification of RNA Oligonucleotides Binding to Several Proteins from Potential G-Quadruplex Forming Regions in Transcribed Pre-mRNA”.

Each binder was assayed against PDGF-AA (UniProt P04085 87-211) (assay: SPR; SPR: PBS (137 mM NaCl, 2.7 mM KCl, 8 mM Na2HPO4, 2 mM KH2PO4) pH 7.4, 25 °C, protein on CM5; EMSA: 50 mM Tris-HCl, 100 mM KCl, pH 7.5, room temperature, 1 uM RNA, 15% PAGE in TBE). Settings: protein: commercial; chain copies: 2; label: 5' fluorescein for EMSA; none for SPR; parallel G4.

Binder | Kd [nM]
GGGGGCGGGAGCCAGAGACCAGUGGGCAGGG (structured_RNA) [VEGFA intronic G4_1] | 20

Same assay, conditions: protein: commercial; chain copies: 2; parallel G4

Binder | Kd [nM]
GGGGGCAGGGCGCAGGAGGGAGAGGGGG (structured_RNA) [VEGFA intronic G4_2] | 20
GGGCGCGGGGUUUGGGGUGGG (structured_RNA) [PDGFB intronic G4_1] | 30
GGAGGAGGGGGAGGAGGA (structured_RNA) [VEGFA 5' UTR G4] | 60
GGGGAAGGGGAGCUGGGGCGCAGCGGG (structured_RNA) [PDGFA intronic G4_1] | 30
GGGGUGCGGGGAGCGGGGAAGGG (structured_RNA) [PDGFA intronic G4_2] | 30
GGGUUUGGUUGGGCACAGGGCACGGG (structured_RNA) [PDGFB intronic G4_3] | 40
GGGCACUCGGGUAGGGGGAGGACUAGGG (structured_RNA) [PDGFB intronic G4_2] | 20

The binders below were run against PDGF-BB (UniProt P01127 82-190) in the same assay as above. Settings: protein: commercial; chain copies: 2; label: 5' fluorescein for EMSA; none for SPR; parallel G4.
Chain of PDGF-BB (P01127 82-190): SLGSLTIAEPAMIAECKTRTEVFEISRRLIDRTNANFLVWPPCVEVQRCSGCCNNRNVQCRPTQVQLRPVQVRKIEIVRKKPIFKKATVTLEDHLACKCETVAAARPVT

Binder | Kd [nM]
GGGGGCGGGAGCCAGAGACCAGUGGGCAGGG (structured_RNA) [VEGFA intronic G4_1] | 40

Same assay, conditions: protein: commercial; chain copies: 2; parallel G4

Binder | Kd [nM]
GGGGGCAGGGCGCAGGAGGGAGAGGGGG (structured_RNA) [VEGFA intronic G4_2] | 30
GGGCGCGGGGUUUGGGGUGGG (structured_RNA) [PDGFB intronic G4_1] | 40
GGAGGAGGGGGAGGAGGA (structured_RNA) [VEGFA 5' UTR G4] | 110
GGGGAAGGGGAGCUGGGGCGCAGCGGG (structured_RNA) [PDGFA intronic G4_1] | 30
GGGGUGCGGGGAGCGGGGAAGGG (structured_RNA) [PDGFA intronic G4_2] | 30
GGGUUUGGUUGGGCACAGGGCACGGG (structured_RNA) [PDGFB intronic G4_3] | 60
GGGCACUCGGGUAGGGGGAGGACUAGGG (structured_RNA) [PDGFB intronic G4_2] | 30

These binders were tested against T1, VEGF165 (UniProt P15692-4 27-191) in the same assay as above. Settings: protein: commercial; label: 5' fluorescein for EMSA; none for SPR; parallel G4.
T1 sequence (P15692 other isoform, or with tags, fused parts or gaps): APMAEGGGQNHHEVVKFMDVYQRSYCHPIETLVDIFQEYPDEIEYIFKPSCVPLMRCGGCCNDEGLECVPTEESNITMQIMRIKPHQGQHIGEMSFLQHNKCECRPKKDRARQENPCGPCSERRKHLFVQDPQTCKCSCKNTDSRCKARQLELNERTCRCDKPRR

Binder | Kd [nM]
GGGGGCGGGAGCCAGAGACCAGUGGGCAGGG (structured_RNA) [VEGFA intronic G4_1] | 140

Same assay, conditions: protein: commercial; parallel G4

Binder | Kd [nM]
GGGGGCAGGGCGCAGGAGGGAGAGGGGG (structured_RNA) [VEGFA intronic G4_2] | 31
GGGCGCGGGGUUUGGGGUGGG (structured_RNA) [PDGFB intronic G4_1] | 130
GGAGGAGGGGGAGGAGGA (structured_RNA) [VEGFA 5' UTR G4] | 300
GGGGAAGGGGAGCUGGGGCGCAGCGGG (structured_RNA) [PDGFA intronic G4_1] | 490
GGGGUGCGGGGAGCGGGGAAGGG (structured_RNA) [PDGFA intronic G4_2] | 200
GGGUUUGGUUGGGCACAGGGCACGGG (structured_RNA) [PDGFB intronic G4_3] | 440
GGGCACUCGGGUAGGGGGAGGACUAGGG (structured_RNA) [PDGFB intronic G4_2] | 150

What follows are binders tested against T1, VEGF165 (assay: SPR; up to 1000 nM RNA; SPR: PBS (137 mM NaCl, 2.7 mM KCl, 8 mM Na2HPO4, 2 mM KH2PO4) pH 7.4, 25 °C, protein on CM5; EMSA: 50 mM Tris-HCl, 100 mM KCl, pH 7.5, room temperature, 1 uM RNA, 15% PAGE in TBE). Settings: protein: commercial; label: 5' fluorescein for EMSA; none for SPR; unexpected parallel G4 by CD.

Binder | binding result
GUUUGCGGGAGCCAGAGACCAGUGGGCAGGG (structured_RNA) [VEGFA intronic G4_1 mutant] | no binding

Same assay, conditions: protein: commercial; no parallel G4 by CD

Binder | binding result
GGAUUAGUGUGAGGAGGA (ssRNA) [VEGFA 5' UTR G4 mutant] | no binding
UUUUUCAGGGCGCAGGAGGGAGAUUUUU (ssRNA) [VEGFA intronic G4_2 mutant] | no binding

The binders below were run against alpha-Thrombin (human, UniProt P00734;P00734 328-363;364-622) (assay: SPR; SPR: PBS (137 mM NaCl, 2.7 mM KCl, 8 mM Na2HPO4, 2 mM KH2PO4) pH 7.4, 25 °C, protein on CM5; EMSA: 50 mM Tris-HCl, 100 mM KCl, pH 7.5, room temperature, 1 uM RN). Settings: not given.

Binder | binding result
GGGGGCGGGAGCCAGAGACCAGUGGGCAGGG (structured_RNA) [VEGFA intronic G4_1] | no binding
GGGGGCAGGGCGCAGGAGGGAGAGGGGG (structured_RNA) [VEGFA intronic G4_2] | no binding
GGAGGAGGGGGAGGAGGA (structured_RNA) [VEGFA 5' UTR G4] | no binding
